Reference: the MegaScale stability set (Tsuboyama et al. 2023)

B1: r4_43_TrROS_Hall (parent)
chain: DLVTIKVPLENLEEIKKAAEKAGFKIVSISYDKENKEVTIVIEKKK

Variants of: B1
Experiment: folding stability dG (cDNA display proteolysis); higher = more stable
Settings: PBS, room temperature

Row | Variant | folding stability dG
1 | DLVTIKVPLENLEEIKKAAEKAGFKIVSISYDKENKEPTIVIEKKK [V38P] | 1.79 kcal/mol
2 | DLVTIKVPLENLEEIKKAAEKAGFKIVSISYDKENKEFTIVIEKKK [V38F] | 3.57 kcal/mol
3 | DLVTIKVPLENLEEIKKAAEKAGFKIVSISYDKENKEMTIVIEKKK [V38M] | 3.43 kcal/mol
4 | DLVTIKVPLENLEEIKKAAEKAGFKIVSISYDKENKEDTIVIEKKK [V38D] | 0.46 kcal/mol
5 | DLVTIKVPLENLEEIKKAAEKAGFKIVSISYDKENKENTIVIEKKK [V38N] | 2.11 kcal/mol
6 | DLVTIKVPLENLEEIKKAAEKAGFKIVSISYDKENKECTIVIEKKK [V38C] | 3.57 kcal/mol
7 | DLVTIKVPLENLEEIKKAAEKAGFKIVSISYDKENKEKTIVIEKKK [V38K] | 1.02 kcal/mol
8 | DLVTIKVPLENLEEIKKAAEKAGFKIVSISYDKENKEGTIVIEKKK [V38G] | 3.18 kcal/mol
9 | DLVTIKVPLENLEEIKKAAEKAGFKIVSISYDKENKEQTIVIEKKK [V38Q] | 1.74 kcal/mol
10 | DLVTIKVPLENLEEIKKAAEKAGFKIVSISYDKENKEITIVIEKKK [V38I] | 3.66 kcal/mol
11 | DLVTIKVPLENLEEIKKAAEKAGFKIVSISYDKENKEETIVIEKKK [V38E] | 0.699 kcal/mol
12 | DLVTIKVPLENLEEIKKAAEKAGFKIVSISYDKENKEATIVIEKKK [V38A] | 3.79 kcal/mol
13 | DLVTIKVPLENLEEIKKAAEKAGFKIVSISYDKENKETTIVIEKKK [V38T] | 3.23 kcal/mol
14 | DLVTIKVPLENLEEIKKAAEKAGFKIVSISYDKENKEYTIVIEKKK [V38Y] | 4.2 kcal/mol
15 | DLVTIKVPLENLEEIKKAAEKAGFKIVSISYDKENKEWTIVIEKKK [V38W] | 4.33 kcal/mol
16 | DLVTIKVPLENLEEIKKAAEKAGFKIVSISYDKENKERTIVIEKKK [V38R] | 1.31 kcal/mol
17 | DLVTIKVPLENLEEIKKAAEKAGFKIVSISYDKENKEHTIVIEKKK [V38H] | 2.85 kcal/mol
18 | DLVTIKVPLENLEEIKKAAEKAGFKIVSISYDKENKELTIVIEKKK [V38L] | 3.71 kcal/mol
19 | DLVTIKVPLENLEEIKKAAEKAGFKIVSISYDKENKEVIIVIEKKK [T39I] | 3.66 kcal/mol

Row | Variant | folding stability dG
20 | DLVTIKVPLENLEEIKKAAEKAGFKIVSISYDKENKEVNIVIEKKK [T39N] | 3.14 kcal/mol
21 | DLVTIKVPLENLEEIKKAAEKAGFKIVSISYDKENKEVMIVIEKKK [T39M] | 3.52 kcal/mol
22 | DLVTIKVPLENLEEIKKAAEKAGFKIVSISYDKENKEVFIVIEKKK [T39F] | 3.69 kcal/mol
23 | DLVTIKVPLENLEEIKKAAEKAGFKIVSISYDKENKEVSIVIEKKK [T39S] | 3.54 kcal/mol
24 | DLVTIKVPLENLEEIKKAAEKAGFKIVSISYDKENKEVAIVIEKKK [T39A] | 3.4 kcal/mol
25 | DLVTIKVPLENLEEIKKAAEKAGFKIVSISYDKENKEVCIVIEKKK [T39C] | 3.2 kcal/mol
26 | DLVTIKVPLENLEEIKKAAEKAGFKIVSISYDKENKEVHIVIEKKK [T39H] | 3.47 kcal/mol
27 | DLVTIKVPLENLEEIKKAAEKAGFKIVSISYDKENKEVVIVIEKKK [T39V] | 3.56 kcal/mol
28 | DLVTIKVPLENLEEIKKAAEKAGFKIVSISYDKENKEVLIVIEKKK [T39L] | 3.36 kcal/mol
29 | DLVTIKVPLENLEEIKKAAEKAGFKIVSISYDKENKEVPIVIEKKK [T39P] | -0.044 kcal/mol
30 | DLVTIKVPLENLEEIKKAAEKAGFKIVSISYDKENKEVKIVIEKKK [T39K] | 3.42 kcal/mol
31 | DLVTIKVPLENLEEIKKAAEKAGFKIVSISYDKENKEVWIVIEKKK [T39W] | 4.01 kcal/mol
32 | DLVTIKVPLENLEEIKKAAEKAGFKIVSISYDKENKEVRIVIEKKK [T39R] | 3.57 kcal/mol
33 | DLVTIKVPLENLEEIKKAAEKAGFKIVSISYDKENKEVGIVIEKKK [T39G] | 2.85 kcal/mol
34 | DLVTIKVPLENLEEIKKAAEKAGFKIVSISYDKENKEVYIVIEKKK [T39Y] | 3.83 kcal/mol
35 | DLVTIKVPLENLEEIKKAAEKAGFKIVSISYDKENKEVQIVIEKKK [T39Q] | 3.36 kcal/mol
36 | DLVTIKVPLENLEEIKKAAEKAGFKIVSISYDKENKEVEIVIEKKK [T39E] | 3.22 kcal/mol
37 | DLVTIKVPLENLEEIKKAAEKAGFKIVSISYDKENKEVDIVIEKKK [T39D] | 3.21 kcal/mol
38 | DLVTIKVPLENLEEIKKAAEKAGFKIVSISYDKENKEVTIVREKKK [I42R] | 2.38 kcal/mol

Row | Variant | folding stability dG
39 | DLVTIKVPLENLEEIKKAAEKAGFKIVSISYDKENKEVTIVEEKKK [I42E] | 1.39 kcal/mol
40 | DLVTIKVPLENLEEIKKAAEKAGFKIVSISYDKENKEVTIVVEKKK [I42V] | 3.46 kcal/mol
41 | DLVTIKVPLENLEEIKKAAEKAGFKIVSISYDKENKEVTIVDEKKK [I42D] | 0.038 kcal/mol
42 | DLVTIKVPLENLEEIKKAAEKAGFKIVSISYDKENKEVTIVCEKKK [I42C] | 3.24 kcal/mol
43 | DLVTIKVPLENLEEIKKAAEKAGFKIVSISYDKENKEVTIVQEKKK [I42Q] | 2.84 kcal/mol
44 | DLVTIKVPLENLEEIKKAAEKAGFKIVSISYDKENKEVTIVKEKKK [I42K] | 2.34 kcal/mol
45 | DLVTIKVPLENLEEIKKAAEKAGFKIVSISYDKENKEVTIVYEKKK [I42Y] | 4.47 kcal/mol
46 | DLVTIKVPLENLEEIKKAAEKAGFKIVSISYDKENKEVTIVHEKKK [I42H] | 2.83 kcal/mol
47 | DLVTIKVPLENLEEIKKAAEKAGFKIVSISYDKENKEVTIVNEKKK [I42N] | 0.933 kcal/mol
48 | DLVTIKVPLENLEEIKKAAEKAGFKIVSISYDKENKEVTIVTEKKK [I42T] | 3.03 kcal/mol
49 | DLVTIKVPLENLEEIKKAAEKAGFKIVSISYDKENKEVTIVLEKKK [I42L] | 3.79 kcal/mol
50 | DLVTIKVPLENLEEIKKAAEKAGFKIVSISYDKENKEVTIVGEKKK [I42G] | 2.97 kcal/mol
51 | DLVTIKVPLENLEEIKKAAEKAGFKIVSISYDKENKEVTIVWEKKK [I42W] | 4.19 kcal/mol
52 | DLVTIKVPLENLEEIKKAAEKAGFKIVSISYDKENKEVTIVMEKKK [I42M] | 3.85 kcal/mol
53 | DLVTIKVPLENLEEIKKAAEKAGFKIVSISYDKENKEVTIVSEKKK [I42S] | 2.75 kcal/mol
54 | DLVTIKVPLENLEEIKKAAEKAGFKIVSISYDKENKEVTIVPEKKK [I42P] | -0.342 kcal/mol
55 | DLVTIKVPLENLEEIKKAAEKAGFKIVSISYDKENKEVTIVAEKKK [I42A] | 3.53 kcal/mol
56 | DLVTIKVPLENLEEIKKAAEKAGFKIVSISYDKENKEVTIVFEKKK [I42F] | 4.17 kcal/mol
